Common to all, as to assay: negative-stain EM
In assay [1] the target is GhV F S196C/A215C ectodomain (Ghanaian virus (GhV)).
Assay [2] deals with GhV F I268F/Q287P ectodomain (Ghanaian virus (GhV)).
Assay [3] concerns the target GhV F I268F/Q287P/S196C/A215C ectodomain (Ghanaian virus (GhV)).

This note sets out measurements from article doi:10.1101/2023.08.20.554025.

As a reminder, the stoichiometry N is the number of molecules, sites or subunits per partner or assembly. “GhV F S196C/A215C ectodomain (domain or fragment)” showed a stoichiometry N in assay [1] of 3. In assay [2], “GhV F I268F/Q287P ectodomain (domain or fragment)” came in with a stoichiometry N of 3. In assay [3], “GhV F I268F/Q287P/S196C/A215C ectodomain (domain or fragment)” came in with a stoichiometry N of 3.
